The IC50 is the concentration at which inhibition is half-maximal. A high value points to a need for much substance. Usually IC80 stands for the concentration needed for an effect of 80%. In general, IC90 refers to the point of the concentration-response curve where the effect stands at 90%. Lower therefore signals an effect from little substance. What is called IC95 is the concentration needed for an effect of 95%.

Common to all, as to assay: cell-based or functional assay
Assay [1] deals with HIV-1 Env of isolate CAP45 (HIV-1).
Assay [2] addresses HIV-1 Env of isolate REJ04541 (HIV-1).
Assay [3] addresses HIV-1 Env of isolate ZM214 (HIV-1).
Assay [4] has as its target HIV-1 Env of isolate CAAN (HIV-1).
In assay [5] the target is MuLV envelope protein (control pseudovirus) (MuLV).
Assay [6] deals with HIV-1 92RW020 Env (clade A pseudovirus) (HIV-1).
Assay [7] concerns the target HIV-1 MGRM-C-027 Env (clade C pseudovirus) (HIV-1).
Assay [8] concerns the target HIV-1 MGRM-C-026 Env (clade C pseudovirus) (HIV-1).
Assay [9] concerns the target HIV-1 92UG005 Env (pseudovirus) (HIV-1).
For assay [10], the target named is HIV-1 92UG024 Env (pseudovirus) (HIV-1).
In assay [11] the target is HIV-1 MGRM-A-010 Env (pseudovirus) (HIV-1).
In assay [12] the target is HIV-1 Env of isolate APV17 (clade B) (HIV-1).
In assay [13] the target is HIV-1 Env of isolate MGRM-C-028 (clade C) (HIV-1).
The target in assay [14] is HIV-1 Env of isolate MGRM-C-027 (clade C) (HIV-1).
The target of assay [15] is HIV-1 Env of isolate 93UG077 (clade A) (HIV-1).
Assay [16] concerns the target HIV-1 Env of isolate JRFL (clade B) (HIV-1).
The target of assay [17] is HIV-1 Env of isolate MGRM-AG-005 (clade AG) (HIV-1).
For assay [18], the target named is HIV-1 envelope glycoprotein (Env) of isolate JRFL, on pseudovirus (HIV-1).
Assay [19] has as its target HIV-1 Env of isolate QH0692.42 (subtype B) (HIV-1).
In assay [20] the target is HIV-1 Env of isolate APV_6 (HIV-1).
The target of assay [21] is HIV-1 Env of isolate 92UG046 (subtype D), on pseudovirus (HIV-1).
Assay [22] addresses HIV-1 Env of isolate MG RM-A-011 (pseudovirus) (HIV-1).
The target in assay [23] is HIV-1 Env of isolate MGRM-D-004 (subtype D), on pseudovirus (HIV-1).
Assay [24] concerns the target HIV-1 Env of isolate MGRM-AE-004 (pseudovirus) (HIV-1).
Assay [25] addresses HIV-1 Env of isolate APV_13 (HIV-1).
In assay [26] the target is HIV-1 Env of isolate MG RM-A-014 (pseudovirus) (HIV-1).
Assay [27] deals with HIV-1 Env of isolate 92UG024 (subtype D), on pseudovirus (HIV-1).
Assay [28] concerns the target HIV-1 Env of isolate MG RM-A-008 (pseudovirus) (HIV-1).
In assay [29] the target is HIV-1 Env of isolate MG RM-A-009 (pseudovirus) (HIV-1).
The target of assay [30] is HIV-1 Env of isolate 92WR024 (pseudovirus) (HIV-1).
For assay [31], the target named is HIV-1 Env of isolate MGRM-D-005 (subtype D), on pseudovirus (HIV-1).
Assay [32] has as its target HIV-1 Env of isolate 92UG114 (subtype D), on pseudovirus (HIV-1).
The target of assay [33] is HIV-1 Env of isolate 92UG005 (subtype D), on pseudovirus (HIV-1).
In assay [34] the target is HIV-1 Env of isolate MG RM-A-006 (pseudovirus) (HIV-1).
Assay [35] addresses HIV-1 Env of isolate 98CN009 (subtype CRF07_BC), on pseudovirus (HIV-1).
Assay [36] addresses HIV-1 Env of isolate MG RM-A-013 (pseudovirus) (HIV-1).
Assay [37] concerns the target HIV-1 Env of isolate MGRM-D-008 (subtype D), on pseudovirus (HIV-1).
Assay [38] has as its target HIV-1 Env of isolate MGRM-AE-005 (pseudovirus) (HIV-1).
For assay [39], the target named is HIV-1 Env of isolate 93TH305 (HIV-1).

Sequence of 1443_C16 (PG16) (TCN-116) (antibody) (VH): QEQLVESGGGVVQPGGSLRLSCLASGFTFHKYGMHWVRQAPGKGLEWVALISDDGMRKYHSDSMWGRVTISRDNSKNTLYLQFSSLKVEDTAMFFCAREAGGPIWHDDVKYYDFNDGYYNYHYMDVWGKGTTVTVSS
Sequence of 1443_C16 (PG16) (TCN-116) (antibody) (VL): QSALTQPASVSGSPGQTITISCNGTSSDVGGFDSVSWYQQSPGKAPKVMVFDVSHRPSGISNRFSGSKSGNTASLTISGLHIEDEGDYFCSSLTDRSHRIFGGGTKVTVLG

As for 1443_C16 (PG16) (TCN-116) (antibody), the IC50, pseudovirus neutralization (TZM-bl) in assay [1] is < 0.01 µg/mL; in assay [2], < 0.01 µg/mL; in assay [3], > 25 µg/mL; in assay [4], 6.37 µg/mL. Moreover, the IC50, pseudovirus neutralization (TZM-bl), control virus in [5] was > 25 µg/mL.

In assay [6], 4877_D15 (PGT-122) (antibody) returned a Neutralization by PGT-122, IC50 of 0.0072 µg/mL; a Neutralization by PGT-122, IC80 of 0.0407 µg/mL; a Neutralization by PGT-122, IC90 of 0.113 µg/mL; a Neutralization by PGT-122, IC95 of 0.289 µg/mL. Also, in assay [7], the Neutralization by PGT-122, IC50 was determined as 0.0388 µg/mL; the Neutralization by PGT-122, IC80 is 0.499 µg/mL; the Neutralization by PGT-122, IC90 is > 10 µg/mL; the Neutralization by PGT-122, IC95 was > 10 µg/mL. In assay [8], this substance registered a Neutralization by PGT-122, IC50 of 0.0089 µg/mL; a Neutralization by PGT-122, IC80 of 0.037 µg/mL; a Neutralization by PGT-122, IC90 of 0.0849 µg/mL; a Neutralization by PGT-122, IC95 of 0.181 µg/mL.

5141_B17 (PGT-126) (antibody): in [9], the half-inhibitory concentration (IC50) stood at 0.0181 µg/mL, the 80% effect concentration (IC80) amounted to 0.145 µg/mL, the IC90 worked out at 0.553 µg/mL and the IC95 was 2.45 µg/mL. For the same substance, in assay [10], the concentration for half-maximal inhibition (IC50) is > 10 µg/mL, the IC80 is > 10 µg/mL, the concentration for an effect of 90% (IC90) is > 10 µg/mL and the concentration for an effect of 95% (IC95) is > 10 µg/mL. Besides, in [11], the 50% inhibitory concentration (IC50) came to 0.0033 µg/mL, the IC80 came to 0.0137 µg/mL, the IC90 is 0.0316 µg/mL and the IC95 came to 0.0687 µg/mL.

Turning to 5147_N06 (PGT-130) (antibody), the neutralization IC50 in assay [12] was > 10 µg/mL; in [13], > 10 µg/mL; in assay [14], 0.0052 µg/mL; in [15], > 10 µg/mL; in assay [16], 0.0346 µg/mL; in [17], 0.947 µg/mL. Moreover, the neutralization IC80 in [12] was > 10 µg/mL; in assay [13], > 10 µg/mL; in assay [14], 0.0318 µg/mL; in assay [15], > 10 µg/mL; in assay [16], 0.751 µg/mL; in assay [17], > 10 µg/mL. The neutralization IC90 is > 10 µg/mL in assay [12]; > 10 µg/mL in [13]; 0.106 µg/mL in assay [14]; > 10 µg/mL in assay [15]; 5.72 µg/mL in [16]; > 10 µg/mL in [17]. Besides, the neutralization IC95 in [12] was > 10 µg/mL; in assay [13] it was > 10 µg/mL; in [14], 0.464 µg/mL; in assay [15], > 10 µg/mL; in assay [16], > 10 µg/mL; in [17] it was > 10 µg/mL.

Take PGV04 (antibody): the IC50, pseudovirus neutralization in assay [18] was found to be 0.032 µg/mL. Also, the IC50 (µg/mL), pseudovirus neutralization in [19] was 1.9 µg/mL.

In the case of VRC01 (antibody), the IC50 in [20] came to 1.81 µg/mL; in assay [25] it was 0.657 µg/mL; in assay [39] it was 0.243 µg/mL. Besides, the IC50, pseudovirus neutralization in assay [21] is 12.7 µg/mL; in assay [23], 1.25 µg/mL; in assay [27], 0.576 µg/mL; in [31], > 50 µg/mL; in assay [32], 0.33 µg/mL; in [33], 0.576 µg/mL. Further, the results for the IC50, pseudovirus neutralization in assay [35] and in assay [37] were 0.346 µg/mL and 0.854 µg/mL, respectively. Also, the IC50 (µg/mL), pseudovirus neutralization in [22] came to 0.273 µg/mL; in assay [24], 0.187 µg/mL; in assay [26] it was 0.135 µg/mL; in assay [28], 0.303 µg/mL; in assay [29] it was 0.118 µg/mL; in assay [30], 0.327 µg/mL. The IC50 (µg/mL), pseudovirus neutralization in [34] was 0.521 µg/mL; in assay [36] it was 0.152 µg/mL; in assay [38], 0.029 µg/mL.

The values are drawn from patent US20200024330A1.
